Results on two substances are retold here after paper PMC10465942, “N-acetylmuramic acid recognition by MurK kinase from the MurNAc auxotrophic oral pathogen Tannerella forsythia” (The Journal of Biological Chemistry, 2023).

In test [1] the target is K1058, paralogous MurNAc kinase of Tannerella forsythia (Tannerella forsythia). Kind of test: SEC; SD200 16/60 column, 4 °C; MurK in 200 mM NaCl, 50 mM MES, pH 6; K1058 in 750 mM NaCl, 25 mM Tris-HCl, pH 8.5; apparent mass about 60 kDa against 32.4 and 32.3 kDa for the monomers. On the technique in general: SEC sorts molecules by how far they enter the pores of the column.

In test [2] the target is Tannerella forsythia ATP-dependent murein sugar kinase (MurK) (Tannerella forsythia). Described as above.

The term stoichiometry N denotes the number of molecules, sites or subunits per partner or assembly. Take “K1058, paralogous MurNAc kinase of Tannerella forsythia (enzyme)”: the stoichiometry N in test [1] amounted to 2. Turning to “Tannerella forsythia ATP-dependent murein sugar kinase (MurK) (enzyme)”, the stoichiometry N in test [2] amounted to 2.
